In series [1] the test system is O=C1C(Cl)=CC(=Nc2ccc(O)cc2)C=C1Cl. Put plainly: purified protein. To be noted: apparent, electron acceptor, 100 mM D-glucose, oxygen removed with nitrogen, pH 6.5, 30°C, 50 mM potassium phosphate.
The subject of a further series is O=C1C=CC(=O)C=C1. Description: purified protein. The conditions noted are these: apparent, electron acceptor, 100 mM D-glucose, oxygen removed with nitrogen, pH 6.5, 30°C, 50 mM potassium phosphate.
A further series deals with T1, PcP2Ox (Phanerodontia chrysosporium, UniProt Q6QWR1).
T1 construct: gene p2ox; C-terminal His6 tag kept, pET21-a(+), E. coli BL21(DE3), IMAC
T1 sequence (Q6QWR1 whole entry): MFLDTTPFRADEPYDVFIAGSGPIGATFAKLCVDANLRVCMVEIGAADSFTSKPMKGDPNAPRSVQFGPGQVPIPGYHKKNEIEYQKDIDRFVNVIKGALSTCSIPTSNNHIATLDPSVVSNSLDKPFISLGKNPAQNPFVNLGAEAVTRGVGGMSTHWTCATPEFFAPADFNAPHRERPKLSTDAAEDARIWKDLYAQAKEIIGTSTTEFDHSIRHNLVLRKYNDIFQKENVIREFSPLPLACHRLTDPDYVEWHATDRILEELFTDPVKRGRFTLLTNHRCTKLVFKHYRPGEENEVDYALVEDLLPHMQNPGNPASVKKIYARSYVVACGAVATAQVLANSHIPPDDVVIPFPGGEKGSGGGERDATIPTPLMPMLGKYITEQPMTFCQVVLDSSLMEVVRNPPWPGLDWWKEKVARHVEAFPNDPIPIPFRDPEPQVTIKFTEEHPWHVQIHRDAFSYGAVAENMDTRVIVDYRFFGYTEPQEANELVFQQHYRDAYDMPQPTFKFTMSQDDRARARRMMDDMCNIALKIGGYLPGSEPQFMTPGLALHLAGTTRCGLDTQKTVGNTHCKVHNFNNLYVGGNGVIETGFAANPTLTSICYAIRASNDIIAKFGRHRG
Put plainly: absorbance at […] nm. The format is biochemical. To be noted: apparent; electron acceptor, 100 mM D-glucose, oxygen removed with nitrogen, pH 6.5, 30°C, 50 mM potassium phosphate; used as PF6 salt.

A further series concerns the target T2, TmP2Ox (Trametes ochracea, UniProt Q7ZA32).
T2 construct: gene p2o; C-terminal His6 tag kept, pET21-d(+), E. coli BL21(DE3), IMAC
Description: absorbance at […] nm. The format is biochemical. To be noted: apparent; electron acceptor, 100 mM D-glucose, oxygen removed with nitrogen, pH 6.5, 30°C, 50 mM potassium phosphate; used as PF6 salt.

A further series addresses T3, LsP2Ox (Lyophyllum shimeji, UniProt Q75ZP8).
T3 construct: gene p2ox; full-length cDNA (ORF 1857 bp, 619 residues), C-terminal His6 tag kept, pET21a(+), E. coli Rosetta 2; purified by AIEX and preparative native PAGE; subunit 68,488 Da
Description: absorbance at […] nm. The conditions noted are these: apparent; electron acceptor, 100 mM D-glucose, oxygen removed with nitrogen, pH 6.5, 30°C, 50 mM potassium phosphate; used as PF6 salt. The format is biochemical.

Substrate in series [2]: O=C1C(Cl)=CC(=Nc2ccc(O)cc2)C=C1Cl
Put plainly: purified protein. The conditions noted are these: apparent, electron acceptor, 100 mM D-glucose, oxygen removed with nitrogen, pH 6.5, 30°C, 50 mM potassium phosphate. The series is classed as biochemical, Lyophyllum shimeji.

Substrate in series [3]: O=C1C=CC(=O)C=C1
Put plainly: purified protein. The series is classed as biochemical, Lyophyllum shimeji. To be noted: apparent, electron acceptor, 100 mM D-glucose, oxygen removed with nitrogen, pH 6.5, 30°C, 50 mM potassium phosphate.

One may read the Km as the substrate concentration at which the rate is half of its maximum. The kcat is the maximal rate divided by the concentration of active sites. The kcat/Km is the turnover number divided by the Michaelis constant.

For the molecule TmP2Ox (Trametes ochracea), in series [1], the Km came out at 413 µM, the catalytic constant (kcat) is 42 s⁻¹ and the kcat/Km amounted to 102000 M⁻¹ s⁻¹. Also, in the series with O=C1C=CC(=O)C=C1, the Km came to 253 µM, the kcat was 225 s⁻¹ and the catalytic efficiency (kcat/Km) came out at 895000 M⁻¹ s⁻¹.
For `C1=CCC=C1.C1=CCC=C1.[Fe+3]` [ferrocenium ion], the figures for the Michaelis-Menten constant (Km) at PcP2Ox, on TmP2Ox and on LsP2Ox were 330 µM, 507 µM and 187 µM, respectively.

B1: LsP2Ox (Lyophyllum shimeji) (protein)
chain: MSLSTEQMLRDYPRSMQINGQIPKNAIHETYGNDGVDVFIAGSGPIGATYAKLCVEAGLRVVMVEIGAADSFYAVNAEEGTAVPYVPGYHKKNEIEFQKDIDRFVNVIKGALQQVSVPVRNQNVPTLDPGAWSAPPGSSAISNGKNPHQREFENLSAEAVTRGVGGMSTHWTCSTPRIHPPMESLPGIGRPKLSNDPAEDDKEWNELYSEAERLIGTSTKEFDESIRHTLVLRSLQDAYKDRQRIFRPLPLACHRLKNAPEYVEWHSAENLFHSIYNDDKQKKLFTLLTNHRCTRLALTGGYEKKIGAAEVRNLLATRNPSSQLDSYIMAKVYVLASGAIGNPQILYNSGFSGLQVTPRNDSLIPNLGRYITEQPMAFCQIVLRQEFVDSVRDDPYGLPWWKEAVAQHIAKNPTDALPIPFRDPEPQVTTPFTEEHPWHTQIHRDAFSYGAVGPEVDSRVIVDLRWFGATDPEANNLLVFQNDVQDGYSMPQPTFRYRPSTASNVRARKMMADMCEVASNLGGYLPTSPPQFMDPGLALHLAGTTRIGFDKATTVADNNSLVWDFANLYVAGNGTIRTGFGENPTLTSMCHAIKSARSIINTLKGGTDGKNTGEHRNL
notes: full-length cDNA (ORF 1857 bp, 619 residues), C-terminal His6 tag kept, pET21a(+), E. coli Rosetta 2; purified by AIEX and preparative native PAGE; subunit 68,488 Da
As to B1, in “purified protein [2]”, the Km was determined as 187 µM, the kcat was determined as 67.3 s⁻¹ and the kcat/Km is 361000 M⁻¹ s⁻¹. In addition, in the series “purified protein [3]”, the Km turned out to be 33 µM, the kcat turned out to be 92.3 s⁻¹ and the kcat/Km amounted to 2.76e+06 M⁻¹ s⁻¹.

The values are drawn from publication PMC2914677, “Characterisation of recombinant pyranose oxidase from the cultivated mycorrhizal basidiomycete Lyophyllum shimeji (hon-shimeji)” (Microbial Cell Factories, 2010).
